The results in this text go back to patent publication US20210277441A1, “METHOD OF SELECTING A POLYPEPTIDE OF INTEREST” (IMPERIAL COLLEGE INNOVATIONS LIMITED, priority 2018, published 2021).

Where a chain is given by its changes, count along the chain named. Names and notes keep the numbering of the source.

The subject of test [1] is AL cells. Briefly: 1H NMR analysis of fermentation broth of anaerobic cultures. Also on record: Substrate concentration: unit not given here. The class given is cell-based, Escherichia coli.
Test [2] relates to LS1 strain (ΔadhE ΔldhA double mutant) cells. Briefly: Metabolic complementation (anaerobic growth recovery) of LS1/AL strain. The class given is cell-based, Escherichia coli. Here is the method:
(§1) The LS1 mutant strain and the parental BW25113 strain were transformed with the desired plasmid and overnight pre-cultures were grown aerobically in 15 mL Falcon tubes with M9 media (0.4% glucose). These pre-cultures were used to inoculate 10 mL Hungate tubes with M9 medium (0.4% glucose) supplemented with 100 μg/mL ampicillin, 1 mM IPTG and with or without the specific substrate of the dehydrogenase under anaerobic conditions at 37° C. Metabolic complementation was assessed by measuring the optical density at 600 nm every two hours during daytime.

Test [3] deals with LS5 strain. Briefly: Metabolic complementation (anaerobic growth) of quadruple mutant. The class given is cell-based, Escherichia coli. Here is the method:
as §1
Since in the triple mutants the non-deleted transhydrogenase could still be supporting anaerobic growth under anaerobic fermentation conditions when complemented with an NADPH-dependent oxidoreductase by generating oxidized NAD, the inventors generated a quadruple mutant where adhE, ldhA, sthA and pntA genes were deleted (LS5 strain, FIG. 11).

Test [4] concerns triple mutants (adhE, ldhA and one transhydrogenase gene knocked out). Briefly: Metabolic complementation of triple mutants. Type of test: cell-based, E. coli. To be noted: any of the triple mutants. The source says:
As LS1 (ΔadhE-ΔldhA double mutant) was able to grow when transformed with an NADPH-dependent oxidoreductase (wild type CBADH), the inventors generated two triple mutants where, in addition to adhE and ldhA, one transhydrogenase gene was deleted in each. Transhydrogenases catalyse the direct transfer of electrons from NADH to NADP+ and from NADPH to NAD+, in the following reaction: NADH+NADP^+=NAD^++NADPH. Without wishing to be bound to any particularly theory, the inventors hypothesized the activity of these transhydrogenases is what makes the system able to restore anaerobic growth when transformed with enzymes that generate NADP+. Two triple mutants, where one transhydrogenase gene was knocked out in addition to adhE and ldhA, were generated, since there are 2 transhydrogenase genes in E. coli: • sthA (soluble transhydrogenase) • pntA (transmembrane transhydrogenase).

Test [5] is described as follows: Enzymatic activity assays with purified enzyme, reduction of acetone. Type of test: biochemical.
Test [6] in a line: Enzymatic activity assays with purified enzyme, oxidation of isopropanol. The class given is biochemical.
Test [7] deals with LS1 strain cells. Briefly: GC analysis of fermentation broth. The class given is cell-based, Escherichia coli. The settings on record: anaerobic, media supplemented with acetone.
Where [8] appears, read: exogenous substrate acetone, product isopropanol.
[9] abbreviates: exogenous substrate acetoin, product 2,3-butanediol.
Where [10] appears, read: LS1, medium supplemented with acetoin.
[11] abbreviates: exogenous substrate 2-methyl-1-pyrroline.
The mark [12] stands for this setting: exogenous substrate 2-nitrobenzoic acid.
Setting [13] is: exogenous substrate 4-nitrobenzylic alcohol.

B1: Clostridium beijerinckii alcohol dehydrogenase (protein, listed as Clostridium beijerinckii)
chain: MKGFAMLGINKLGWIEKERPVAGSYDAIVRPLAVSPCTSDIHTVFEGALGDRKNMILGHEAVGEVVEVGSEVKDFKPGDRVIVPCTTPDWRSLEVQAGFQQHSNGMLAGWKFSNFKDGVFGEYFHVNDADMNLAILPKDMPLENAVMITDMMTTGFHGAELADIQMGSSVVVIGIGAVGLMGIAGAKLRGAGRIIGVGSRPICVEAAKFYGATDILNYKNGHIVDQVMKLTNGKGVDRVIMAGGGSETLSQAVSMVKPGGIISNINYHGSGDALLIPRVEWGCGMAHKTIKGGLCPGGRLRAEMLRDMVVYNRVDLSKLVTHVYHGFDHIEEALLLMKDKPKDLIKAVVIL
In test [1] (exogenous substrate acetone), B1 registered an Acetate concentration of 8.1, an Ethanol concentration of 0, a Formate concentration of 5.8 and a Lactate concentration of 0. In test [1] (exogenous substrate acetone), the Substrate concentration is 0.1 and the Succinate concentration is reported as 1.1. In test [1] (setting [8]), this molecule returned a Product concentration of 10.8. Also, the “time after which growth recovery was observed” value in test [2] (LS1 cells cultured anaerobically, media supplemented with acetone) was found to be 55 h. For the same molecule, the anaerobic growth entry in test [3] (media supplemented with acetone or not) is on record as “anaerobic growth is not restored”. Besides, the anaerobic growth entry in test [4] was “still able to grow anaerobically”.

B2: CBADH-s: CBADH variant with substitutions G198D, S199Y and Y218P, uses NADH instead of NADPH (protein)
chain: B1 chain with G198D, S199Y, Y218P
modifications: amino acid variant of CBADH
notes: CBADH variant with substitutions G198D, S199Y and Y218P, uses NADH instead of NADPH
In the case of B2, in test [1] (exogenous substrate acetone), the Acetate concentration worked out at 13, the Ethanol concentration is 0, the Formate concentration was 9.9 and the Lactate concentration was determined as 0. Also, in test [1] (exogenous substrate acetone), the Substrate concentration was found to be 0.5 and the Succinate concentration was determined as 1.1. Also, the Product concentration in test [1] (setting [8]) amounted to 12.7. In test [2] (LS1, media supplemented with acetone), the anaerobic growth recovery result is “allowed growth recovery”. In addition, in test [3] (media supplemented with acetone), the anaerobic growth result is reported as “anaerobic growth is restored”. The “increase in activity compared to the wild type” value in test [5] (reduction of acetone to isopropanol, NADH as the cofactor, purified enzyme) is listed as 4.6 fold. For the same molecule, the “activity with NADP(H) as the cofactor” value in test [5] (reduction reaction) is given as “no significant activity”. Further, in test [6] (oxidation of isopropanol to acetone, NAD+ as the cofactor, purified enzyme), the “increase in activity compared to the wild type” value is given as “io”. Also, in test [6] (oxidation reaction), the “activity with NADP(H) as the cofactor” value is “no significant activity”. Also, in test [7], the “isopropanol in fermentation broth compared with pLS6” value is reported as “much higher levels”.

B3: pLS3: pUC19 with sADH NADH-dependent from Klebsiella pneumoniae (budC), acetoin reductase (protein, UniProt Q48436 1-256, looked up)
Diacetyl reductase …: MKKVALVTGAGQGIGKAIALRLVKDGFAVAIADYNDATAKAVASEINQAGGRAMAVKVDVSDRDQVFAAVEQARKTLGGFDVIVNNAGVAPSTPIESITPEIVDKVYNINVKGVIWGIQAAVEAFKKEGHGGKIINACSQAGHVGNPELAVYSSSKFAVRGLTQTAARDLAPLGITVNGYCPGIVKTPMWAEIDRQVSEAAGKPLGYGTAEFAKRITLGRLSEPEDVAACVSYLASPDSDYMTGQSLLIDGGMVFN
modifications: expressed from pUC19 plasmid
notes: pUC19 with sADH NADH-dependent from Klebsiella pneumoniae (budC), acetoin reductase
B3: in test [1] (exogenous substrate acetoin), the Acetate concentration turned out to be 7.9, the Ethanol concentration turned out to be 0, the Formate concentration turned out to be 5 and the Lactate concentration is reported as 0. In test [1] (exogenous substrate acetoin), this molecule gave a Substrate concentration of 0.2 and a Succinate concentration of 0.7. In test [1] (setting [9]), this molecule registered a Product concentration of 8.3. The anaerobic growth recovery entry in test [2] (setting [10]) is recorded as “growth recovery was achieved”.

B4: Myxococcus stipitatus imine reductase (protein)
chain: MKPTLTVIGAGRMGSALIKAFLQSGYTTTVWNRTKAKSEPLAKLGAHLADTVRDAVKRSDIIVVNVLDYDTSDQLLRQDEVTRELRGKLLVQLTSGSPALAREQETWARQHGIDYLDGAIMATPDFIGQAECALLYSGSAALFEKHRAVLNVLGGATSHVGEDVGHASALDSALLFQMWGTLFGTLQALAISRAEGIPLEKTTAFIKLTEPVTQGAVADVLTRVQQNRLTADAQTLASLEAHNVAFQHLLALCEERNIHRGVADAMYSVIREAVKAGHGKDDFAILTRFLK
modifications: Myxococcus stipitatus imine reductase
For B4, in test [1] (setting [11]), the Acetate concentration was determined as 4.3, the Ethanol concentration was found to be 0, the Formate concentration came to 2.1 and the Lactate concentration is 0. In test [1] (setting [11]), this molecule displayed a Substrate concentration of 5.5 and a Succinate concentration of 1.2. The molecule further yielded a Product concentration in test [1] (exogenous substrate 2-methyl-1-pyrroline, product 2-methylpyrrolidine) of 6.6.

B5: pLS2: pUC19 with sADH NADH-dependent from Bacillus subtilis (bdhA), acetoin reductase (protein, UniProt O34788 1-346, looked up)
(R,R)-butanediol dehydrogenase: MKAARWHNQKDIRIEHIEEPKTEPGKVKIKVKWCGICGSDLHEYLGGPIFIPVDKPHPLTNETAPVTMGHEFSGEVVEVGEGVENYKVGDRVVVEPIFATHGHQGAYNLDEQMGFLGLAGGGGGFSEYVSVDEELLFKLPDELSYEQGALVEPSAVALYAVRSSKLKAGDKAAVFGCGPIGLLVIEALKAAGATDIYAVELSPERQQKAEELGAIIVDPSKTDDVVAEIAERTGGGVDVAFEVTGVPVVLRQAIQSTTIAGETVIVSIWEKGAEIHPNDIVIKERTVKGIIGYRDIFPAVLSLMKEGYFSADKLVTKKIVLDDLIEEGFGALIKEKSQVKILVRPN
modifications: expressed from pUC19 plasmid
notes: pUC19 with sADH NADH-dependent from Bacillus subtilis (bdhA), acetoin reductase
Regarding B5, in test [1] (exogenous substrate acetoin), the Acetate concentration is on record as 6.7, the Ethanol concentration is 0, the Formate concentration is 3.7 and the Lactate concentration came out at 0. In test [1] (exogenous substrate acetoin), this molecule gave a Substrate concentration of 0 and a Succinate concentration of 0.5. Further, the Product concentration in test [1] (setting [9]) is given as 8.4. For the same molecule, the anaerobic growth recovery result in test [2] (setting [10]) is listed as “growth recovery was achieved”.

B6: nsfB nitroreductase from Enterobacter cloacae (protein, listed as Enterobacter cloacae)
chain: MDIISVALKRHSTKAFDASKKLTAEEAEKIKTLLQYSPSSTNSQPWHFIVASTEEGKARVAKSAAGTYVFNERKMLDASHVVVFCAKTAMDDAWLERVVDQEEADGRFNTPEAKAANHKGRTYFADMHRVDLKDDDQWMAKQVYLNVGNFLLGVGAMGLDAVPIEGFDAAILDEEFGLKEKGFTSLVVVPVGHHSVEDFNATLPKSRLPLSTIVTEC
For B6, in test [1] (setting [12]), the Acetate concentration was 0.7, the Ethanol concentration is reported as 0, the Formate concentration came out at 0.4 and the Lactate concentration is given as 0. In test [1] (setting [12]), this molecule yielded a Substrate concentration of 14.1 and a Succinate concentration of 0. For the same molecule, in test [1] (setting [13]), the Acetate concentration came to 0.8, the Ethanol concentration is on record as 0, the Formate concentration was 0.4 and the Lactate concentration came to 0. In test [1] (setting [13]), this molecule had a Substrate concentration of 8.28 and a Succinate concentration of 0.

B7: EntNFSB-s2: nitroreductase variant identified for cells grown with 4-nitrobenzyl alcohol (protein)
chain: B6 chain with T41L, Y68L, F124L
modifications: no acid variant of Enterobacter cloacae nitroreductase
notes: nitroreductase variant identified for cells grown with 4-nitrobenzyl alcohol
In test [1] (setting [13]), B7 returned an Acetate concentration of 13.2, an Ethanol concentration of 0, a Formate concentration of 7.9 and a Lactate concentration of 0. Besides, in test [1] (setting [13]), the Substrate concentration is 0 and the Succinate concentration is recorded as 1.

B8: EntNFSB-s1: nitroreductase variant selected for 2-NBA (protein)
chain: B6 chain with S40A, T41I, F124A
modifications: amino acid variant of Enterobacter cloacae nitroreductase
notes: nitroreductase variant selected for 2-NBA
In test [1] (setting [12]), B8 registered an Acetate concentration of 4.4, an Ethanol concentration of 0, a Formate concentration of 2.9 and a Lactate concentration of 0. In test [1] (setting [12]), this molecule showed a Substrate concentration of 12.4 and a Succinate concentration of 0.3.
